To fix the notation:
B1: NRC3_random_hg19_473_o1 (dsDNA)
DNA 1: GCGCTACTCGGGAGGCTGAGGCAGGAGAATGGTGTGGCGATTGACAGCGTAGAATGAAGG
DNA 2: CCTTCATTCTACGCTGTCAATCGCCACACCATTCTCCTGCCTCAGCCTCCCGAGTAGCGC
B2: NRC3_random_hg19_330_o1 (dsDNA)
DNA 1: GCAGACTTTGCATCCTGCTGAGAACTGCTCTGAGAGGCGATTGACAGCGTAGAATGAAGG
DNA 2: CCTTCATTCTACGCTGTCAATCGCCTCTCAGAGCAGTTCTCAGCAGGATGCAAAGTCTGC
B3: NRC3_random_hg19_200_o1 (dsDNA)
DNA 1: GCGCAGGAGAATCAGGCAGGGAGGTTGCAGTGAGCCGCGATTGACAGCGTAGAATGAAGG
DNA 2: CCTTCATTCTACGCTGTCAATCGCGGCTCACTGCAACCTCCCTGCCTGATTCTCCTGCGC
B4: NRC3_random_hg19_172_o1 (dsDNA)
DNA 1: GCCAGTACTGTTGCTAGAACTACAACCTGTATGCTGGCGATTGACAGCGTAGAATGAAGG
DNA 2: CCTTCATTCTACGCTGTCAATCGCCAGCATACAGGTTGTAGTTCTAGCAACAGTACTGGC
B5: NRC3_random_hg19_99_o1 (dsDNA)
DNA 1: GCTGTTCTTACTGAGGCGTTTGCTGCCTAGCTCCCTGCGATTGACAGCGTAGAATGAAGG
DNA 2: CCTTCATTCTACGCTGTCAATCGCAGGGAGCTAGGCAGCAAACGCCTCAGTAAGAACAGC
B6: NRC3_random_hg19_326_o1 (dsDNA)
DNA 1: GCATCAGGTCTGCACCTGCAGATGGCGAGGGTTGGCGCGATTGACAGCGTAGAATGAAGG
DNA 2: CCTTCATTCTACGCTGTCAATCGCGCCAACCCTCGCCATCTGCAGGTGCAGACCTGATGC
B7: NRC3_random_hg19_221_o1 (dsDNA)
DNA 1: GCCTTGAATCCAGGAGGCAGAGGCTGCAGTGAGCTGGCGATTGACAGCGTAGAATGAAGG
DNA 2: CCTTCATTCTACGCTGTCAATCGCCAGCTCACTGCAGCCTCTGCCTCCTGGATTCAAGGC
B8: NRC3_random_hg19_188_o1 (dsDNA)
DNA 1: GCGCTAGGATTACAGGCACAAGCCACCGTGCCCAGCGCGATTGACAGCGTAGAATGAAGG
DNA 2: CCTTCATTCTACGCTGTCAATCGCGCTGGGCACGGTGGCTTGTGCCTGTAATCCTAGCGC
B9: NRC3_random_hg19_483_o1 (dsDNA)
DNA 1: GCGAATGGAATAGAGTGGAATGCAGTGGAATGGAAAGCGATTGACAGCGTAGAATGAAGG
DNA 2: CCTTCATTCTACGCTGTCAATCGCTTTCCATTCCACTGCATTCCACTCTATTCCATTCGC
B10: NRC3_wobSeed98_DR4_G7A_o1 (dsDNA)
DNA 1: GCACTAATTGGTCAGCTGAGGTCACACACAATTCGGGCGATTGACAGCGTAGAATGAAGG
DNA 2: CCTTCATTCTACGCTGTCAATCGCCCGAATTGTGTGTGACCTCAGCTGACCAATTAGTGC
B11: NRC3_wobSeed134_DR5_T20A_o1 (dsDNA)
DNA 1: GCGCTGCTAGGTCAACTGAAGGTCAGCTAAAGCTCGGCGATTGACAGCGTAGAATGAAGG
DNA 2: CCTTCATTCTACGCTGTCAATCGCCGAGCTTTAGCTGACCTTCAGTTGACCTAGCAGCGC
B12: NRC3_wobSeed134_DR5_T20G_o1 (dsDNA)
DNA 1: B11 DNA 1 with A20G
DNA 2: B11 DNA 2 with T41C
B13: NRC3_wobSeed134_DR5_C24G_o1 (dsDNA)
DNA 1: B11 DNA 1 with A20T, C24G
DNA 2: B11 DNA 2 with G37C, T41A
B14: NRC3_wobSeed121_DR5_A6C_o1 (dsDNA)
DNA 1: GCCAACCTAGGTCACCGGAAGGTCAAAGTCCGCATGGCGATTGACAGCGTAGAATGAAGG
DNA 2: CCTTCATTCTACGCTGTCAATCGCCATGCGGACTTTGACCTTCCGGTGACCTAGGTTGGC
B15: NRC3_wobSeed50_DR2_C25A_o1 (dsDNA)
DNA 1: GCCCTAGTTGGTCAGGAGGTCACAAACCGGATATGAGCGATTGACAGCGTAGAATGAAGG
DNA 2: CCTTCATTCTACGCTGTCAATCGCTCATATCCGGTTTGTGACCTCCTGACCAACTAGGGC
B16: NRC3_wobSeed51_DR2_A12T_o1 (dsDNA)
DNA 1: GCCCTCGGAGGTCAGAAGGTCAGAGCTGTCCGCTTTGCGATTGACAGCGTAGAATGAAGG
DNA 2: CCTTCATTCTACGCTGTCAATCGCAAAGCGGACAGCTCTGACCTTCTGACCTCCGAGGGC
B17: NRC3_wobSeed109_DR4_A16G_o1 (dsDNA)
DNA 1: GCCGTCCAAGGTCATGGGAGGTCAGTGAAGACAGATGCGATTGACAGCGTAGAATGAAGG
DNA 2: CCTTCATTCTACGCTGTCAATCGCATCTGTCTTCACTGACCTCCCATGACCTTGGACGGC
B18: NRC3_wobSeed136_DR5_C23G_o1 (dsDNA)
DNA 1: GCTAGCCTAGGTCATTCAGGGGGCAGTATAGAAAGCGCGATTGACAGCGTAGAATGAAGG
DNA 2: CCTTCATTCTACGCTGTCAATCGCGCTTTCTATACTGCCCCCTGAATGACCTAGGCTAGC
B19: NRC3_wobSeed136_DR5_T8A_o1 (dsDNA)
DNA 1: B18 DNA 1 with T8A, G23C
DNA 2: B18 DNA 2 with C38G, A53T
B20: NRC3_wobSeed138_DR5_G15A_o1 (dsDNA)
DNA 1: GCGATACAGGGTCAACTAGAGGCCAGAGTATGGAAAGCGATTGACAGCGTAGAATGAAGG
DNA 2: CCTTCATTCTACGCTGTCAATCGCTTTCCATACTCTGGCCTCTAGTTGACCCTGTATCGC
B21: NRC3_wobSeed138_DR5_C23G_o1 (dsDNA)
DNA 1: B20 DNA 1 with A15G, C23G
DNA 2: B20 DNA 2 with G38C, T46C
B22: NRC3_wobSeed125_DR5_T24C_o1 (dsDNA)
DNA 1: GCCCTTACGGGTCACTGACAGGTCATAGCATTTGGAGCGATTGACAGCGTAGAATGAAGG
DNA 2: CCTTCATTCTACGCTGTCAATCGCTCCAAATGCTATGACCTGTCAGTGACCCGTAAGGGC
B23: NRC3_wobSeed133_DR5_A8G_o1 (dsDNA)
DNA 1: GCCGTCCGAGGTCAATGCTAGGTCAGTGAAAGCATTGCGATTGACAGCGTAGAATGAAGG
DNA 2: CCTTCATTCTACGCTGTCAATCGCAATGCTTTCACTGACCTAGCATTGACCTCGGACGGC
B24: NRC3_wobSeed63_DR2_G25T_o1 (dsDNA)
DNA 1: GCCGAACTAGGTCACCAGGACAGTTAAGAGGTTGGAGCGATTGACAGCGTAGAATGAAGG
DNA 2: CCTTCATTCTACGCTGTCAATCGCTCCAACCTCTTAACTGTCCTGGTGACCTAGTTCGGC
B25: NRC3_wobSeed25_DR1_G24C_o1 (dsDNA)
DNA 1: GCCAAACTAGGTCAAAGGTCAAACTCGAGCCAACCAGCGATTGACAGCGTAGAATGAAGG
DNA 2: CCTTCATTCTACGCTGTCAATCGCTGGTTGGCTCGAGTTTGACCTTTGACCTAGTTTGGC
B26: NRC3_wobSeed34_DR1_T4G_o1 (dsDNA)
DNA 1: GCAGCGAAAGGTCGAAGGTGAGTATACCCACCCGAAGCGATTGACAGCGTAGAATGAAGG
DNA 2: CCTTCATTCTACGCTGTCAATCGCTTCGGGTGGGTATACTCACCTTCGACCTTTCGCTGC
B27: NRC3_wobSeed46_DR1_A8G_o1 (dsDNA)
DNA 1: GCTTACCGAGGTGAAAGGTCGTTGATGCACGCCTTGGCGATTGACAGCGTAGAATGAAGG
DNA 2: CCTTCATTCTACGCTGTCAATCGCCAAGGCGTGCATCAACGACCTTTCACCTCGGTAAGC
B28: NRC3_wobSeed122_DR5_T9G_o1 (dsDNA)
DNA 1: GCGCTAGTGGGTCAGTAAAAGGTCACACACCGGTCGGCGATTGACAGCGTAGAATGAAGG
DNA 2: CCTTCATTCTACGCTGTCAATCGCCGACCGGTGTGTGACCTTTTACTGACCCACTAGCGC
B29: NRC3_wobSeed49_DR2_G25C_o1 (dsDNA)
DNA 1: GCCAAACTAGGTCAAGAGGTCAAACTCCGCTTCCCGGCGATTGACAGCGTAGAATGAAGG
DNA 2: CCTTCATTCTACGCTGTCAATCGCCGGGAAGCGGAGTTTGACCTCTTGACCTAGTTTGGC
B30: NRC3_wobSeed61_DR2_G15C_o1 (dsDNA)
DNA 1: GCCGTCCAAGGTCACCAGGTCAGTGAAAGCGACGTGGCGATTGACAGCGTAGAATGAAGG
DNA 2: CCTTCATTCTACGCTGTCAATCGCCACGTCGCTTTCACTGACCTGGTGACCTTGGACGGC

The record followed here is publication PMC6555819, “Comprehensive study of nuclear receptor DNA binding provides a revised framework for understanding receptor specificity”.

Positions count from the first letter of the chain named.

Chain of PPARa:RXRa (Q07869 whole entry, chain 1 of 2): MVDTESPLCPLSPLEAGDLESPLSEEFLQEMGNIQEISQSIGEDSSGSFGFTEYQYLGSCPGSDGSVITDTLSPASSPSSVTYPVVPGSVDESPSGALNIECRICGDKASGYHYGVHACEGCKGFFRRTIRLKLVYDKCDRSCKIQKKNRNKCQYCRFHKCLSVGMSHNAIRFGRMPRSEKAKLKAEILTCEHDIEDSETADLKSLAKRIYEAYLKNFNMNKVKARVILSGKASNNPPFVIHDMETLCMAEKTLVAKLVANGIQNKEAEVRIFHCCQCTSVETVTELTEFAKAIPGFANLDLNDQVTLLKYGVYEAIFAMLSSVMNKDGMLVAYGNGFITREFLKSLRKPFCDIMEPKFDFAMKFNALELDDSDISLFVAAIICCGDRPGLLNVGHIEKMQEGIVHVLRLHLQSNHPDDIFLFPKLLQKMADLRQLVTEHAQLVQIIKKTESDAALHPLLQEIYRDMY
Chain of PPARa:RXRa (P19793 whole entry, chain 2 of 2): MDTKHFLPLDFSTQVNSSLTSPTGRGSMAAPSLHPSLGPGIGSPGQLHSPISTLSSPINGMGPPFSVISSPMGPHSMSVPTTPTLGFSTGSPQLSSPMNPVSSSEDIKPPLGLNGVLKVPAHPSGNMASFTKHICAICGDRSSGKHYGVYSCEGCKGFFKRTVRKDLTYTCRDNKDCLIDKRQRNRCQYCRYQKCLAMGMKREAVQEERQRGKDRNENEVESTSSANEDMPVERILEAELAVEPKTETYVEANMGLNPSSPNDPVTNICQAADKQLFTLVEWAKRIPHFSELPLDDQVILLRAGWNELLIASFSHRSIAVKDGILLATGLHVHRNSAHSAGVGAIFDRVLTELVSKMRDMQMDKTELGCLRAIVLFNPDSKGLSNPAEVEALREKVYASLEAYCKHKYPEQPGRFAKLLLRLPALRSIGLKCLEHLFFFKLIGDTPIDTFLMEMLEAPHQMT

The target in one data set is PPARa:RXRa (Homo sapiens, UniProt Q07869;P19793 full;full). In words: no ligand; PBM; 270 nM : 90 nM RXRa; PBS pH 7.4, 2% milk, 0.02% Triton X-100, 1 mM DTT, BSA, 0.4 mg/ml salmon testes DNA. Conditions: tags: GST kept;His cleaved; copies: 1;1; label: surface-attached array probe. In a few lines:
(§1)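 Custom Agilent 4×180K protein-binding microarrays carried double-stranded probes, each with a 34-nt variable region. These regions held direct-repeat seeds, single-nucleotide variants, half-site ablations and random human genomic background sequences. Ligand-free nuclear receptor dimers were incubated on the arrays for 1 h, antibodies against each partner (one per run) detected binding, and scanned fluorescence was regression-normalized. Binding z-scores take the random background probes as reference.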
For B1, the binding signal is -1.24 PBM z-score against 500 random probes.
On the same count and under the same terms, the value for B2 was -1.18 PBM z-score against 500 random probes; that for B3 was -0.47 PBM z-score against 500 random probes; that for B4 was -0.42 PBM z-score against 500 random probes.
Same read-out and setting: the value for B5 was -0.37 PBM z-score against 500 random probes; that for B6 was -0.67 PBM z-score against 500 random probes; that for B7 was -0.29 PBM z-score against 500 random probes.
With B8, the binding signal is -0.72 PBM z-score against 500 random probes.
On the same count and under the same terms, under B9 stands -0.61 PBM z-score against 500 random probes.

In another data set the target is RARg:RXRa (Homo sapiens, UniProt P13631;P19793 full;full). Described as above. Conditions: tags: His kept;His cleaved; copies: 1;1; label: surface-attached array probe. The procedure, abridged: as §1
Chain of RARg:RXRa (P13631 whole entry, chain 1 of 2): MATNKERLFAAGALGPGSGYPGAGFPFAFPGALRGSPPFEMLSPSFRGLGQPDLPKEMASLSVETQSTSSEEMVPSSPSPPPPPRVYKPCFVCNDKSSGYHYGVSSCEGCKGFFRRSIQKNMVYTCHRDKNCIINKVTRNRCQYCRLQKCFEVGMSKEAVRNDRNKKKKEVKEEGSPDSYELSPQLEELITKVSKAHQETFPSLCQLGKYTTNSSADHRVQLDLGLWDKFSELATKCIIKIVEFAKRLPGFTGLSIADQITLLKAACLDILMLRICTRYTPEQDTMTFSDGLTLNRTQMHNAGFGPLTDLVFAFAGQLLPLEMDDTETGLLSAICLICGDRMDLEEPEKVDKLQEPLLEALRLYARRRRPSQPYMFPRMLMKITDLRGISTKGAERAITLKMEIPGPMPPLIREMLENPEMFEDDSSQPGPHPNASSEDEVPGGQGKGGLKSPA
Chain of RARg:RXRa (P19793 whole entry, chain 2 of 2): as the sequence (P19793 whole entry, chain 2 of 2) above
In the case of B10, the binding signal is 4.44 PBM z-score against 500 random probes.
The same measure, in the same setting: under B11 stands 7.99 PBM z-score against 500 random probes.
B12: the binding signal was 7.66 PBM z-score against 500 random probes.
In the case of B13, the binding signal was 4.58 PBM z-score against 500 random probes.
Consider B14, for which the binding signal is 8.94 PBM z-score against 500 random probes.
In the case of B15, the binding signal was 4.55 PBM z-score against 500 random probes.
Still for that read-out and setting: under B16 stands 7.6 PBM z-score against 500 random probes.
The same measure, in the same setting: the value for B17 was 7.38 PBM z-score against 500 random probes; that for B18 was 7.73 PBM z-score against 500 random probes.
Regarding B19, the binding signal is 7.41 PBM z-score against 500 random probes.
On to B20, for which the binding signal is 7.73 PBM z-score against 500 random probes.
On the same count and under the same terms, the value for B21 was 7.69 PBM z-score against 500 random probes; that for B22 was 7.68 PBM z-score against 500 random probes.
Same read-out and setting: the value for B23 was 8.1 PBM z-score against 500 random probes.
The same measure, in the same setting: under B24 stands 4.47 PBM z-score against 500 random probes; under B25, 9.32 PBM z-score against 500 random probes; under B26, 4.41 PBM z-score against 500 random probes.
For the molecule B27, the binding signal is 4.52 PBM z-score against 500 random probes.
As for B28, the binding signal is 7.46 PBM z-score against 500 random probes.
Still for that read-out and setting: the value for B29 was 8.44 PBM z-score against 500 random probes.
On the same count and under the same terms, under B30 stands 7.32 PBM z-score against 500 random probes.
